According to paper PMC3648886:

Legend:
Assay in all cases: FRET or BRET
[1] = molecular target: Monocysteine-reactive type A CCK receptor construct A204C, derivatized with Alexa^546 at position 204 (UniProt P30551)
[2] = molecular target: Monocysteine-reactive type A CCK receptor construct C94, derivatized with Alexa^546 at position 94 (UniProt P30551)
[3] = molecular target: Monocysteine-reactive type A CCK receptor construct N102C, derivatized with Alexa^546 at position 102 (UniProt P30551)
[4] = molecular target: Monocysteine-reactive type A CCK receptor construct T341C, derivatized with Alexa^546 at position 341 (UniProt P30551)

| efficiency of energy transfer [1] | efficiency of energy transfer [2] | efficiency of energy transfer [3] | efficiency of energy transfer [4] | Substance |
| --- | --- | --- | --- | --- |
| 53% | 56% | 64% | 64% | Aladan^24-CCK (peptide) |
| 54% | 55% | 66% | 67% | Aladan^29-CCK (peptide) |
| 53% | 58% | 70% | 66% | Aladan^33-CCK (peptide) |
